Patent US20220403041A1 (Sanofi, published 2022)

Assays:
[1] = molecular target: T1, human CD73 on COR-L23 lung carcinoma cells (human) (UniProt P21589)
T1 sequence: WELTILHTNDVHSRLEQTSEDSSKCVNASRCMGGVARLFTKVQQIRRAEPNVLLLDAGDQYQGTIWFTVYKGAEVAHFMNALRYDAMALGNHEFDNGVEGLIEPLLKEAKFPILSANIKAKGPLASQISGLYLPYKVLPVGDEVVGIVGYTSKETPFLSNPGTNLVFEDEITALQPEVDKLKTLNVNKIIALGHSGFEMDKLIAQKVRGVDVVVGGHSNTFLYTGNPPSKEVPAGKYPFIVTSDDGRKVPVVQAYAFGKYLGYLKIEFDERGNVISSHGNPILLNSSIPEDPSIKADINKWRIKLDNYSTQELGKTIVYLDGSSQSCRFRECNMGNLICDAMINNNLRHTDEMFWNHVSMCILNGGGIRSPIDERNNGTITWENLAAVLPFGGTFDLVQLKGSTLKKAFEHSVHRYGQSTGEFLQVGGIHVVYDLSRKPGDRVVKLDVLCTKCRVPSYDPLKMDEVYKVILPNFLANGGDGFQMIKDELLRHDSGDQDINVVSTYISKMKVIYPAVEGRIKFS

[2] = molecular target: T1, human CD73 on COR-L23 lung carcinoma cells (human); test: cell-based or functional assay
[3] = molecular target: T2, soluble CD73 dimer (human, UniProt P21589 27-549, limits assumed); test: SPR, antibody captured on Protein A chip, CD73 in flow; Langmuir 1:1 fit
T2 construct: CD73 in the flow (SPR) or in solution (BLI binning); also called soluble human CD73
T2 sequence: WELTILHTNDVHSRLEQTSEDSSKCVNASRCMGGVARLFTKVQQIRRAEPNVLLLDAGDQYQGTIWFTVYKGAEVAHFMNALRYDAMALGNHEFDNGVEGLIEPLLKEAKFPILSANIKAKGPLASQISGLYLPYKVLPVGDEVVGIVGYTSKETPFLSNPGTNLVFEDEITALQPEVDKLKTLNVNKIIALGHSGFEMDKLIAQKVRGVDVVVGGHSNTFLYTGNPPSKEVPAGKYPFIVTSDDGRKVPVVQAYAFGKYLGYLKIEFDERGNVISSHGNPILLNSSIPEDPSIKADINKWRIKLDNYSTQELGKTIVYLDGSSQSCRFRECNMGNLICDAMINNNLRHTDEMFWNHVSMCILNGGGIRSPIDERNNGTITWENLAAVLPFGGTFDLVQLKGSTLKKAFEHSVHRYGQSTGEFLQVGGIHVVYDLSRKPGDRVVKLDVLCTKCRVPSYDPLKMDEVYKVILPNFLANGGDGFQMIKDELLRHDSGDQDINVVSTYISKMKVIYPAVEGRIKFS

[4] = molecular target: T2, soluble CD73 dimer; test: SPR, antibody captured on Protein A chip, CD73 in flow; biphasic fit, component of abundance 9%
[5] = molecular target: T2, soluble CD73 dimer; test: SPR, antibody captured on Protein A chip, CD73 in flow; biphasic fit, component of abundance 45%
[6] = molecular target: T2, soluble CD73 dimer; test: SPR, antibody captured on Protein A chip, CD73 in flow; biphasic fit, component of abundance 55%
[7] = molecular target: T2, soluble CD73 dimer; test: SPR, antibody captured on Protein A chip, CD73 in flow; biphasic fit, component of abundance 91%
[8] = molecular target: T2, soluble CD73 dimer; test: SPR, antibody captured on Protein A chip, CD73 in flow; Langmuir ka with major component kd
[9] = molecular target: T2, soluble CD73 dimer; test: SPR, antibody captured on chip, CD73 in flow; biphasic fit, share by T0 intercept of the component with kd 6.00E-03 1/s
[10] = molecular target: T2, soluble CD73 dimer; test: SPR, antibody captured on chip, CD73 in flow; biphasic fit, share by T0 intercept of the component with kd 7.80E-05 1/s
[11] = molecular target: T2, soluble CD73 dimer; test: SPR, antibody captured on chip, CD73 in flow; biphasic fit, share after 300 s binding phase of the component with ka 1.16E+05 1/Ms
[12] = molecular target: T2, soluble CD73 dimer; test: SPR, antibody captured on chip, CD73 in flow; biphasic fit, share after 300 s binding phase of the component with ka 1.19E+06 1/Ms
[13] = molecular target: T2, soluble CD73 dimer; test: SPR dissociation kinetics
[14] = molecular target: T2, soluble CD73 dimer; test: SPR, antibody on the solid support, soluble CD73 dimer in solution
[15] = molecular target: T2, soluble CD73 dimer; test: SPR; KD from Langmuir ka and kd of the principal dissociation component
[16] = molecular target: T2, soluble CD73 dimer; test: SPR, antibody captured on Protein A chip, CD73 in flow; biphasic fit, component of abundance 15%
[17] = molecular target: T2, soluble CD73 dimer; test: SPR, antibody captured on Protein A chip, CD73 in flow; biphasic fit, component of abundance 35%
[18] = molecular target: T2, soluble CD73 dimer; test: SPR, antibody captured on Protein A chip, CD73 in flow; biphasic fit, component of abundance 65%
[19] = molecular target: T2, soluble CD73 dimer; test: SPR, antibody captured on Protein A chip, CD73 in flow; biphasic fit, component of abundance 85%
[20] = molecular target: T2, soluble CD73 dimer; test: SPR, antibody captured on chip, CD73 in flow; biphasic fit, share by T0 intercept of the component with kd 2.70E-03 1/s
[21] = molecular target: T2, soluble CD73 dimer; test: SPR, antibody captured on chip, CD73 in flow; biphasic fit, share by T0 intercept of the component with kd 2.70E-05 1/s
[22] = molecular target: T2, soluble CD73 dimer; test: SPR, antibody captured on chip, CD73 in flow; biphasic fit, share after 300 s binding phase of the component with ka 1.38E+06 1/Ms
[23] = molecular target: T2, soluble CD73 dimer; test: SPR, antibody captured on chip, CD73 in flow; biphasic fit, share after 300 s binding phase of the component with ka 2.81E+05 1/Ms

B1: TB19/TC29 (bispecific antibody, part only; not given: TC29 arm; constant regions, V domains shown, part only)
VH: QEQLQESGPGLVKPSETLSLTCTVSGGSIRNNYYNWIRQPAGKGLEWIGRIYISGTTNSNPSLKSRVTMSIDTSKNQFSLKLSSVTAADTAIYYCAREHYVSGTSLDNWGQGTLVTVSS
VL: EIVMTQSPTTLSLSPGERATLSCRASQSVNTNYFSWYQQKPGLTPRLLIYGTSTRATGIPARFSGSGSGTDFTLTISSLQPEDFGIYYCQQDYNLPYTFGQGTYLEIK
% inhibition of CD73 activity at 1 µg/ml antibody (COR-L23 cells, 4 h, LC/MS); cell TB19 x TC29 [1]: 95%
EC50 (nM) of inhibition of CD73 activity (adenosine by LC/MS) [2]: 0.264 nM
EC50, fold lower than that of the antibody mixture [2]: 50 fold
Max Inhib. (projected maximal inhibition at saturating antibody) [2]: 95%
inhibition of CD73 enzymatic activity on COR-L23 cells at 1 µg/mL [2]: > 95%
koff [3]: 8.96e-05 s⁻¹
kon [3]: 685000 M⁻¹ s⁻¹
koff [4]: 0.006 s⁻¹
kon [5]: 116000 M⁻¹ s⁻¹
kon [6]: 1.19e+06 M⁻¹ s⁻¹
koff [7]: 7.8e-05 s⁻¹
Kd [8]: 0.114 nM
abundance of dissociation component (biphasic fit) [9]: 9%
abundance of dissociation component (biphasic fit) [10]: 91%
abundance of association component (biphasic fit) [11]: 45%
abundance of association component (biphasic fit) [12]: 55%

B2: TB19/TA9 (bispecific antibody, part only; not given: TA9 arm, part only)
TB19 arm heavy chain: QEQLQESGPGLVKPSETLSLTCTVSGGSIRNNYYNWIRQPAGKGLEWIGRIYISGTTNSNPSLKSRVTMSIDTSKNQFSLKLSSVTAADTAIYYCAREHYVSGTSLDNWGQGTLVTVSS
TB19 arm light chain: EIVMTQSPTTLSLSPGERATLSCRASQSVNTNYFSWYQQKPGLTPRLLIYGTSTRATGIPARFSGSGSGTDFTLTISSLQPEDFGIYYCQQDYNLPYTFGQGTYLEIKRTVAAPSVFIFPPSDEQLKSGTASVVCLLNNFYPREAKVQWKVDNALQSGNSQESVTEQDSKDSTYSLSSTLTLSKADYEKHKVYACEVTHQGLSSPVTKSFNRGEC
% inhibition of CD73 activity at 1 µg/ml antibody (COR-L23 cells, 4 h, LC/MS); cell TB19 x TA9 [1]: 70%

B3: TB19/H19 (bispecific antibody, part only; not given: H19 arm; constant regions, V domains shown, part only)
VH: QEQLQESGPGLVKPSETLSLTCTVSGGSIRNNYYNWIRQPAGKGLEWIGRIYISGTTNSNPSLKSRVTMSIDTSKNQFSLKLSSVTAADTAIYYCAREHYVSGTSLDNWGQGTLVTVSS
VL: EIVMTQSPTTLSLSPGERATLSCRASQSVNTNYFSWYQQKPGLTPRLLIYGTSTRATGIPARFSGSGSGTDFTLTISSLQPEDFGIYYCQQDYNLPYTFGQGTYLEIK
% inhibition of CD73 activity at 1 µg/ml antibody (COR-L23 cells, 4 h, LC/MS); cell TB19 x H19 [1]: 97%
EC50 (nM) of inhibition of CD73 activity (adenosine by LC/MS) [2]: 0.382 nM
Max Inhib. (projected maximal inhibition at saturating antibody) [2]: 98%
inhibition of CD73 enzymatic activity on COR-L23 cells at 1 µg/mL [2]: > 95%
fold more stable (kd of the principal component) than with either monovalent parental [13]: 26 fold
fold lower KD than either parental antibody [14]: 15 fold
fold increase of apparent affinity (KD) over either monovalent parental antibody [15]: 69 fold
koff [3]: 0.000112 s⁻¹
kon [3]: 449000 M⁻¹ s⁻¹
koff [16]: 0.0027 s⁻¹
kon [17]: 1.38e+06 M⁻¹ s⁻¹
kon [18]: 281000 M⁻¹ s⁻¹
koff [19]: 2.7e-05 s⁻¹
Kd [8]: 0.0602 nM
abundance of dissociation component (biphasic fit) [20]: 15%
abundance of dissociation component (biphasic fit) [21]: 85%
abundance of association component (biphasic fit) [22]: 35%
abundance of association component (biphasic fit) [23]: 65%

B4: TB19/F1.2 (bispecific antibody, part only; not given: F1.2 arm, part only)
TB19 arm heavy chain: QEQLQESGPGLVKPSETLSLTCTVSGGSIRNNYYNWIRQPAGKGLEWIGRIYISGTTNSNPSLKSRVTMSIDTSKNQFSLKLSSVTAADTAIYYCAREHYVSGTSLDNWGQGTLVTVSS
TB19 arm light chain: EIVMTQSPTTLSLSPGERATLSCRASQSVNTNYFSWYQQKPGLTPRLLIYGTSTRATGIPARFSGSGSGTDFTLTISSLQPEDFGIYYCQQDYNLPYTFGQGTYLEIKRTVAAPSVFIFPPSDEQLKSGTASVVCLLNNFYPREAKVQWKVDNALQSGNSQESVTEQDSKDSTYSLSSTLTLSKADYEKHKVYACEVTHQGLSSPVTKSFNRGEC
% inhibition of CD73 activity at 1 µg/ml antibody (COR-L23 cells, 4 h, LC/MS); cell TB19 x F1.2 [1]: 47%

B5: TB19/AS30 (bispecific antibody, part only; not given: AS30 arm, constant regions, V domains shown, not shown: another chain or arm of the molecule; a dimerising Fc or GST; small tags and cut ends)
VH: QEQLQESGPGLVKPSETLSLTCTVSGGSIRNNYYNWIRQPAGKGLEWIGRIYISGTTNSNPSLKSRVTMSIDTSKNQFSLKLSSVTAADTAIYYCAREHYVSGTSLDNWGQGTLVTVSS
VL: EIVMTQSPTTLSLSPGERATLSCRASQSVNTNYFSWYQQKPGLTPRLLIYGTSTRATGIPARFSGSGSGTDFTLTISSLQPEDFGIYYCQQDYNLPYTFGQGTYLEIK
% inhibition of CD73 activity at 1 µg/ml antibody (COR-L23 cells, 4 h, LC/MS); cell TB19 x AS30 (monovalent) [1]: -1%
koff [3]: 0.00069 s⁻¹
kon [3]: 165000 M⁻¹ s⁻¹
Kd [8]: 4.18 nM

B6: TB19/C16 (bispecific antibody, part only; not given: C16 arm, part only)
TB19 arm heavy chain: QEQLQESGPGLVKPSETLSLTCTVSGGSIRNNYYNWIRQPAGKGLEWIGRIYISGTTNSNPSLKSRVTMSIDTSKNQFSLKLSSVTAADTAIYYCAREHYVSGTSLDNWGQGTLVTVSS
TB19 arm light chain: EIVMTQSPTTLSLSPGERATLSCRASQSVNTNYFSWYQQKPGLTPRLLIYGTSTRATGIPARFSGSGSGTDFTLTISSLQPEDFGIYYCQQDYNLPYTFGQGTYLEIKRTVAAPSVFIFPPSDEQLKSGTASVVCLLNNFYPREAKVQWKVDNALQSGNSQESVTEQDSKDSTYSLSSTLTLSKADYEKHKVYACEVTHQGLSSPVTKSFNRGEC
% inhibition of CD73 activity at 1 µg/ml antibody (COR-L23 cells, 4 h, LC/MS); cell TB19 x C16 [1]: 85%

B7: TB19/TA10 (bispecific antibody, part only; not given: TA10 arm, part only)
TB19 arm heavy chain: QEQLQESGPGLVKPSETLSLTCTVSGGSIRNNYYNWIRQPAGKGLEWIGRIYISGTTNSNPSLKSRVTMSIDTSKNQFSLKLSSVTAADTAIYYCAREHYVSGTSLDNWGQGTLVTVSS
TB19 arm light chain: EIVMTQSPTTLSLSPGERATLSCRASQSVNTNYFSWYQQKPGLTPRLLIYGTSTRATGIPARFSGSGSGTDFTLTISSLQPEDFGIYYCQQDYNLPYTFGQGTYLEIKRTVAAPSVFIFPPSDEQLKSGTASVVCLLNNFYPREAKVQWKVDNALQSGNSQESVTEQDSKDSTYSLSSTLTLSKADYEKHKVYACEVTHQGLSSPVTKSFNRGEC
% inhibition of CD73 activity at 1 µg/ml antibody (COR-L23 cells, 4 h, LC/MS); cell TB19 x TA10 [1]: 80%

B8: TB19/E23 (bispecific antibody, part only; not given: E23 arm, part only)
TB19 arm heavy chain: QEQLQESGPGLVKPSETLSLTCTVSGGSIRNNYYNWIRQPAGKGLEWIGRIYISGTTNSNPSLKSRVTMSIDTSKNQFSLKLSSVTAADTAIYYCAREHYVSGTSLDNWGQGTLVTVSS
TB19 arm light chain: EIVMTQSPTTLSLSPGERATLSCRASQSVNTNYFSWYQQKPGLTPRLLIYGTSTRATGIPARFSGSGSGTDFTLTISSLQPEDFGIYYCQQDYNLPYTFGQGTYLEIKRTVAAPSVFIFPPSDEQLKSGTASVVCLLNNFYPREAKVQWKVDNALQSGNSQESVTEQDSKDSTYSLSSTLTLSKADYEKHKVYACEVTHQGLSSPVTKSFNRGEC
% inhibition of CD73 activity at 1 µg/ml antibody (COR-L23 cells, 4 h, LC/MS); cell TB19 x E23 [1]: 50%
